Laboratory results: the supplement of paper PMC11865577

Tests used:
Assay in all cases: pull-down binding Z-score (relative to library population); higher = stronger binding
Details in all cases: RNA library: Library-2
[1] = test system: TO-N3 (biotin conjugate)
Summary of the method: (§1)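 Biotin-conjugated small molecule (100 pmol) on streptavidin beads was incubated with 1 μg of heat-folded Cy5- or Cy3-end-labelled RNA library in phosphate/NaCl/KCl buffer at 25 °C for 60 min. Following three washes, RNA was eluted with hot SDS and hybridised at 55.5 °C for 20 h to a DNA barcode microarray. The binding value is a Z-score computed from the library mean and standard deviation, after subtraction of beads without compound and averaging of barcoded replicate probes with the highest and lowest excluded.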

[2] = test system: TO-N3-2 (biotin conjugate)
Summary of the method: as §1

[3] = test system: TO-3-N3 (biotin conjugate)
Summary of the method: as §1

[4] = test system: TO-3-N3-2 (biotin conjugate)
Summary of the method: as §1

Sequence	pull-down binding Z-score [1]	pull-down binding Z-score [2]	pull-down binding Z-score [3]	pull-down binding Z-score [4]
AUAUGUUUACACCACUAAUUCAACCUAUUGGUGCUUUGGACAUAU [DMSMaPseq_invitro_SARS-CoV-2_Motif_171]	-0.635	-0.719	-0.425	-0.311
AUCAAGACUAUUCAACCAAGGGUUGAAAAGAAAAAGCUUGAU	-0.904	-1.25	-0.561	-0.241
AUCACUAGGUUUCAAACUUUACUUGCUUUACAUAGAAGUUAUUUGACUCCUGGUGAU	-0.884	-1.03	-0.735	-0.375
AUCCGAUUUACAGGAU	-0.894	-1.16	-0.684	-0.525
AUCUACAAUGAU [DMSMaPseq_invitro_SARS-CoV-2_Motif_243]	-0.892	-1.55	-0.553	-0.742
AUCUGAAUUCUUCUAGAGUUCCUGAU	0.466	-0.858	0.655	-0.168
AUCUUAGGGAAUUUGUGUUUAAGAAUAUUGAUGGUUAUUUUAAAAUAUAUUCUAAGCACACGCCUAUUAAUUUAGUGCGUGAUCUCCCUCAGGGU	-0.897	-0.222	-0.775	-0.113
AUCUUCUGCAGGCUGCUUACGGUUUCGUCCGUGUUGCAGCCGAUCAUCAGCACAUCUAGGUUUUGUCCGGGUGUGACCGAAAGGUAAGAU [DMSMaPseq_invitro_SARS-CoV-2_Multi_2_ComplexLevel_1]	-1.06	-0.919	-0.599	-0.451
AUCUUUCUGUGCUUUUGCUGUAGAUGCUGCUAAAGCUUACAAAGAU	0.0426	-0.263	0.238	0.0938
AUGAACCACAAAUCAU [DMSMaPseq_invitro_SARS-CoV-2_Motif_444]	0.254	-1.03	0.463	-0.31
AUGAAUCUCUCAU [SHAPE_invivo_SARS-CoV-2_Motif_473]	-0.427	-0.958	-0.104	-0.347
AUGAGAAGUGCUCUGCCUAUACAGUUGAACUCGGUACAGAAGUAAAUGAGUUCGCCUGUGUUGUGGCAGAUGCUGUCAU [SHAPE_invitro_SARS-CoV-2_Motif_53]	0.461	2.07	-0.626	-0.278
AUGAGGUUUAGAAGAGCUUUUGGUGAAUACAGUCAUGUAGUUGCCUUUAAUACUUUACUAUUCCUUAU	-0.296	-0.689	-0.216	0.205
AUGAGUACGAACUUAUGUACUCAU	-0.309	-1.18	-0.0199	-0.43
AUGAUGUUUCUUUUUUAGCACAU	-1.09	-1.28	-0.696	-0.427
AUGCAUUCUGCAU [SHAPE_invivo_SARS-CoV-2_Motif_273]	-0.142	-1.32	-0.0791	-0.638
AUGCCAACUAUUUUCUUUGCUGGCAU	-1.36	-1.13	-0.81	-0.637

Sequence	pull-down binding Z-score [1]	pull-down binding Z-score [2]	pull-down binding Z-score [3]	pull-down binding Z-score [4]
AUGCCUUUUUACCUUUUGCUAUGGGUAUUAUUGCUAUGUCUGCUUUUGCAAUGAUGUUUGUCAAACAUAAGCAUGCAU [DMSMaPseq_invitro_SARS-CoV-2_Multi_36_ComplexLevel_1]	0.0122	-0.261	0.159	0.472
AUGCUGACGAUGGUCAUUUUGUCAGCAU [IAV_invivo_M1_M2_7_Motif_18+IAV_invivo_M1_M2_7_Motif_18]	-0.322	-0.84	0.0275	0.337
AUGCUGUUACAGCGU	-1.35	-1.07	-0.973	-0.512
AUGCUUGGAACAGGAAGAGAAUCAGCAACUGUGUUGCUGAUUAUUCUGUCCUAUAUAAUUCCGCAU [DMSMaPseq_invitro_SARS-CoV-2_Motif_399]	-0.459	-0.139	-0.314	-0.327
AUGGCCCCGAUUUCAGCUAU [SHAPE_invivo_SARS-CoV-2_Motif_151]	-0.668	-0.0238	-0.51	-0.281
AUGGCUGAUCAAGCUAU [DMSMaPseq_invitro_SARS-CoV-2_Motif_216]	-0.208	-0.747	-0.238	-0.583
AUGGUAAGUGCGAUACUUACCUG [U1snRNP5ss-24]	-0.213	0.974	-0.32	-0.139
AUGGUCUUUGUUCUUUUUUUUGUAUGAAAAUGCCUUUUUACCUUUUGCUAUGGGUAUUAUUGCUAU	-0.507	-0.569	-0.455	0.135
AUGGUGCUAACAAAGACGGCAUCAU [SHAPE_invivo_SARS-CoV-2_Motif_545]	-0.143	-0.639	0.0674	-0.105
AUGGUUAUCUUACUUCUUCUUCUAAAACACCUGAAGAACAUUUUAUUGAAACCAU	-1.19	-1.01	-0.93	0.0544
AUGUACAUCUUCUUUGCAUCAUUUUAUUAUGUAUGGAAAAGUUAUGUGCAU	-1.36	-1.44	-1.16	-0.603
AUGUACUUGGAUUGGCUGCAAUCAUGCAAUUGUUUUUCAGCUAUUUUGCAGUACAU	-0.401	-0.271	-0.182	-0.577
AUGUCAUAUUGGAGUUGGACUGCAGGGCUUCCUUUACACAAUAAAUAUUGUAUGAAGUGCUGAUGUAACCUUUACUGCAGCAUGACAU [hsa-mir-3976]	0.227	0.0127	0.131	-0.081
AUGUUUGUCAAACAUAAGCAU [DMSMaPseq_invitro_SARS-CoV-2_Motif_200]	-0.873	-0.806	-0.651	-0.54
AUUACUGCAAAAUGGUAUGAAUGGACGUACCAUAUUGGGUAGU [DMSMaPseq_invitro_SARS-CoV-2_Motif_194]	0.0935	-0.151	0.151	0.144
AUUAGAGAAAACAACAGAGUUGUUAUUUCUAGU [DMSMaPseq_invitro_SARS-CoV-2_Motif_378]	-0.17	-0.787	0.0547	-0.0987
AUUAUGAGGACUUUUAAAGUUUCCAUUUGGAAUCUUGAUUACAUCAUAAACCUCAUAAU	-1.39	-1.25	-1.1	-0.377
